Results: patent US20180251562A1 (XOMA US, published 2018)
Read-outs that look alike come from different tables or passages of the source.

B1: XPA.15.247.2.018 Fab (Fab, V domains shown)
VH: EVQLVETGGGVVQPGRSLRLSCAASGFTFSSYAMHWVRQAPGKGLEWVAVISYSGSNKYYADSVKGRFTISRDNSKNTLYLQMNSLRAEDTAVYYCARHEWGFGFDYWGQGTTVTVSS
VL: DVVMTQSPLSLPVTLGQPASISCRSSQSLVYGDGNTYLNWFQQRPGQSPRRLIYKVSNRDSGVPDRFSGSGSGTEFTLKISRVEAEDVGVYFCMQGTYWPGTFGGGTKLEIKR
notes: Monomeric Fab; also called XPA.247.2.018
B2: XPA.15.247 parent antibody (IgG) (antibody, V domains shown)
VH: EVQLVETGGGVVQPGRSLRLSCAASGFTFSSYAMHWVRQAPGKGLEWVAVISYDGSNKYYADSVKGRFTISRDNSKNTLYLQMNSLRAEDTAVYYCARHEWGFGMDVWGQGTTVTVSS
VL: DVVMTQSPLSLSVTLGQPASISCRSSLSLVYGDENTYLNWFQQRPGQSPRRLLYKVSDRDSGVPDRFSGSGSGTDFTLKISRVEADDVGVYYCMQGTHWPYTFGQGTKLEIKR
notes: Tested as IgG; also called XPA.15.247 antibody
B3: XPA.15.247.2.018 IgG (antibody, V domains shown)
VH: EVQLVETGGGVVQPGRSLRLSCAASGFTFSSYAMHWVRQAPGKGLEWVAVISYSGSNKYYADSVKGRFTISRDNSKNTLYLQMNSLRAEDTAVYYCARHEWGFGFDYWGQGTTVTVSS
VL: DVVMTQSPLSLPVTLGQPASISCRSSQSLVYGDGNTYLNWFQQRPGQSPRRLIYKVSNRDSGVPDRFSGSGSGTEFTLKISRVEAEDVGVYFCMQGTYWPGTFGGGTKLEIKR
notes: Tested as IgG; also called XPA.15.247.2.018 antibody
B4: RHF.15.05896.075 (Fab, V domains shown)
VH: EVQLVETGGGVVQPGRSLRLSCAASGFKFSSYAMHWVRQAPGKGLEWVAVISYSGSNKYYADSVKGRFTISRDNSKNTLYLQMNSLRAEDTAVYYCARHEWGFGYDYWGQGTTVTVSS
VL: DVVMTQSPLSLPVTLGQPASISCRSSQSLVYGDGNTYLNWFQQRPGQSPRRLIYKVSNRDSGVPDRFSGSGSGTEFTLKISRVEAEDVGVYFCMQGTYWPGTFGGGTKLEIKR
notes: Untagged Fab

Tests used:
[1] = molecular target: T1, human insulin receptor (INSR) on CHOK1 cells (human, UniProt P06213 28-1382); assay: binding to CHO cells expressing human INSR; 1st column headed CHO Human INSR; quantity and unit not printed [cont'd]
T1 construct: whole, on cells; CHOK1 cells over-expressing human INSR; also called human INSR; hINSR

[2] = molecular target: T1, human insulin receptor (INSR) on CHOK1 …; assay: cell-based or functional assay
[3] = molecular target: T1, human insulin receptor (INSR) on CHOK1 …; assay: flow cytometry on CHO cells expressing human INSR
[4] = molecular target: T2, rat insulin receptor (INSR) on CHOK1 cells (rat, UniProt P15127 27-1383); assay: binding to CHO cells expressing rat INSR; 1st column headed CHO Rat INSR; quantity and unit not printed [cont'd]
T2 construct: whole, on cells; CHOK1 cells over-expressing rat INSR; also called rat INSR ortholog

[5] = molecular target: T1, human insulin receptor (INSR) on CHOK1 …; assay: flow cytometry on CHOK1 cells expressing the INSR ortholog; Fab, anti-human kappa FITC detection
[6] = molecular target: T3, minipig insulin receptor (INSR) on CHOK1 cells (minipig, UniProt F1SCL0 28-758; F1SCL0 763-1382); assay: as above
T3 construct: Cells expressing minipig INSR; also called minipig INSR

[7] = molecular target: T4, cynomolgus insulin receptor (INSR) on CHOK1 cells (cyno, UniProt A0A7N9D6H3 48-1390); assay: as above
T4 construct: whole, on cells; CHOK1 cells over-expressing cyno INSR; also called cynomologous INSR ortholog; monkey INSR

[8] = molecular target: T2, rat insulin receptor (INSR) on CHOK1 …; assay: as above
[9] = molecular target: T2, rat insulin receptor (INSR) on CHOK1 …; assay: binding to CHO cells expressing rat INSR; 2nd column headed CHO Rat INSR (the 1st column's numbers with more digits); quantity and unit not printed [cont'd]
[10] = molecular target: T1, human insulin receptor (INSR) on CHOK1 …; assay: cell-based or functional assay; remark: listed apart in the source
[11] = molecular target: T3, minipig insulin receptor (INSR) on …; assay: cell-based or functional assay
[12] = molecular target: T4, cynomolgus insulin receptor (INSR) on …; assay: cell-based or functional assay
[13] = molecular target: T2, rat insulin receptor (INSR) on CHOK1 …; assay: cell-based or functional assay
[14] = molecular target: T4, cynomolgus insulin receptor (INSR) on …; assay: binding to CHO cells expressing cyno INSR; 2nd column headed CHO Cyno INSR (same numbers as the 1st); quantity and unit not printed [cont'd]
[15] = molecular target: T1, human insulin receptor (INSR) on CHOK1 …; assay: binding to CHO cells expressing human INSR; 2nd column headed CHO Human INSR; quantity and unit not printed [cont'd]
[16] = molecular target: T5, solubilized human INSR (B isoform) from CHO-hINSR-B cells, without insulin (human, UniProt P06213 28-1382); assay: SPR (ProteOn XPR36), solubilized INSR-B captured by CT-3 mAb, Fab injected, -insulin
T5 construct: mature; Detergent-solubilized full-length receptor in cell lysate, captured on the SPR chip by its carboxy-terminal part; also called solubilized INSR

[17] = molecular target: T6, Recombinant human insulin receptor (B form) ECD (R&D Systems) (human, UniProt P06213 28-956, limits assumed); assay: SPR (Biacore 2000), INSR-ECD immobilised, purified Fab injected, 1:1 fit
T6 construct: extracellular domain; also called INSR-ECD; h-INSR

[18] = molecular target: T1, human insulin receptor (INSR) on CHOK1 …; assay: cell-based or functional assay; remark: listed apart in the source
[19] = molecular target: T4, cynomolgus insulin receptor (INSR) on …; assay: binding to CHO cells expressing cyno INSR; 1st column headed CHO Cyno INSR; quantity and unit not printed [cont'd]
[20] = molecular target: T1, human insulin receptor (INSR) on CHOK1 …; assay: flow cytometry on CHOK1 cells expressing the INSR ortholog; IgG, anti-human IgG APC detection
[21] = molecular target: T3, minipig insulin receptor (INSR) on …; assay: as above
[22] = molecular target: T4, cynomolgus insulin receptor (INSR) on …; assay: as above
[23] = molecular target: T2, rat insulin receptor (INSR) on CHOK1 …; assay: as above
[24] = molecular target: T5, solubilized human INSR (B isoform) from …; assay: SPR (ProteOn XPR36), solubilized INSR captured by CT-3 mAb, antibody injected, no insulin
[25] = molecular target: T1, human insulin receptor (INSR) on CHOK1 …; assay: flow cytometry on CHO cells expressing human INSR; remark: listed apart in the source
[26] = molecular target: T6, Recombinant human insulin receptor (B …); assay: SPR (Biacore 2000), INSR-ECD immobilised; relative to 247.2.018 Fab
[27] = molecular target: T6, Recombinant human insulin receptor (B …); assay: SPR (Biacore 2000), INSR-ECD immobilised, purified Fab injected, 1:1 fit [cont'd]

Binder	CHO Human INSR [1]	EC50, pAKT assay at the EC80 concentration of insulin [2] [nM]	CHO Rat INSR [4]	CHO Rat INSR [9]	EC50 (nM), pAKT signaling assay [10] [nM]	EC50 (nM), pAKT signaling assay [11] [nM]	EC50 (nM), pAKT signaling assay [12] [nM]	EC50 (nM), pAKT signaling assay [13] [nM]	CHO Cyno INSR [14]	CHO Human INSR [15]	Kd [17] [nM]	Potency EC50 value [nM] [cont'd] [18] [nM]	CHO Cyno INSR [19]	EC50 [20] [nM]	EC50 [21] [nM]	EC50 [22] [nM]	EC50 [23] [nM]	Kd [24] [nM]	other results
B1	2.2	7.7	1.28	1.28	3.3	2.5	2.8	4.2	2.62	1.63	9.7	1.31	2.62	–	–	–	–	–	EC50 (read off the curve) [3]: ~0.2 µg/mL; EC50 [5]: 1.6 nM; EC50 [6]: 2 nM; EC50 [7]: 21.9 nM; EC50 [8]: 1.9 nM; Kd [16]: 6.9 nM
B2	–	34.7	–	–	34.5	20.7	30.7	46.2	–	–	–	–	–	8.8	12	13.6	9.7	10	koff [24]: 0.000471 s⁻¹; kon [24]: 38500 M⁻¹ s⁻¹
B3	–	–	–	–	0.3	0.3	0.2	0.4	–	–	–	–	–	0.3	0.5	1.4	0.4	6.6	EC50 (read off the curve) [25]: ~0.8 µg/mL
B4	1.06	–	0.621	0.621	–	–	–	–	0.728	0.791	1.4	1.16	0.728	–	–	–	–	–	Fold KD Improvement [26]: 7 fold; koff [27]: 0.00045 s⁻¹; kon [27]: 320000 M⁻¹ s⁻¹
